Values quoted from earlier work as cited in paper PMC7669891.

What was measured:
p53 CTD (Homo sapiens) [1] = target: p53 CTD (Homo sapiens) (UniProt P04637); experiment: FP
p53 CTD (Homo sapiens) [2] = target: p53 CTD (Homo sapiens) (UniProt P04637); experiment: FP; remark: listed apart in the source
p53 CTD (Homo sapiens) [3] = target: p53 CTD (Homo sapiens) (UniProt P04637); experiment: FP; remark: listed apart in the source
p53 CTD (Homo sapiens) [4] = target: p53 CTD (Homo sapiens) (UniProt P04637); experiment: FP; remark: listed apart in the source
p53 CTD (Homo sapiens) [5] = target: p53 CTD (Homo sapiens) (UniProt P04637); experiment: FP; remark: listed apart in the source
p53 CTD (Homo sapiens) [6] = target: p53 CTD (Homo sapiens) (UniProt P04637); experiment: FP; remark: listed apart in the source
p53 CTD (Homo sapiens) [7] = target: p53 CTD (Homo sapiens) (UniProt P04637); experiment: FP; remark: listed apart in the source
p53 CTD (Homo sapiens) [8] = target: p53 CTD (Homo sapiens) (UniProt P04637); experiment: FP; remark: listed apart in the source
p53 CTD (Homo sapiens) [9] = target: p53 CTD (Homo sapiens) (UniProt P04637); experiment: FP; remark: listed apart in the source
p53 CTD (Homo sapiens) [10] = target: p53 CTD (Homo sapiens) (UniProt P04637); experiment: FP; remark: listed apart in the source
p53 CTD (Homo sapiens) [11] = target: p53 CTD (Homo sapiens) (UniProt P04637); experiment: FP; remark: listed apart in the source
p53 CTD (Homo sapiens) [12] = target: p53 CTD (Homo sapiens) (UniProt P04637); experiment: FP; remark: listed apart in the source
p53 CTD (Homo sapiens) [13] = target: p53 CTD (Homo sapiens) (UniProt P04637); experiment: FP; remark: listed apart in the source
p53 CTD (Homo sapiens) [14] = target: p53 CTD (Homo sapiens) (UniProt P04637); experiment: FP; remark: listed apart in the source
p53 CTD (Homo sapiens) [15] = target: p53 CTD (Homo sapiens) (UniProt P04637); experiment: FP; remark: listed apart in the source
p53 CTD (Homo sapiens) [16] = target: p53 CTD (Homo sapiens) (UniProt P04637); experiment: FP; remark: listed apart in the source
p53 CTD (Homo sapiens) [17] = target: p53 CTD (Homo sapiens) (UniProt P04637); experiment: ITC
p53 CTD (Homo sapiens) [18] = target: p53 CTD (Homo sapiens) (UniProt P04637); experiment: FP; remark: listed apart in the source
p53 CTD (Homo sapiens) [19] = target: p53 CTD (Homo sapiens) (UniProt P04637); experiment: FP; remark: listed apart in the source
p53 CTD (Homo sapiens) [20] = target: p53 CTD (Homo sapiens) (UniProt P04637); experiment: FP; remark: listed apart in the source
p53 CTD (Homo sapiens) [21] = target: p53 CTD (Homo sapiens) (UniProt P04637); experiment: FP; remark: listed apart in the source
p53 CTD (Homo sapiens) [22] = target: p53 CTD (Homo sapiens) (UniProt P04637); experiment: FP; remark: listed apart in the source
14-3-3ε (Homo sapiens) = 14-3-3ε (Homo sapiens) (UniProt P62258); experiment: FP
14-3-3τ (Homo sapiens) = 14-3-3τ (Homo sapiens) (UniProt P27348); experiment: FP
14-3-3σ (Homo sapiens) [23] = target: 14-3-3σ (Homo sapiens) (UniProt P31947); experiment: FP
14-3-3γ (Homo sapiens) = 14-3-3γ (Homo sapiens) (UniProt P61981); experiment: FP
14-3-3σ (Homo sapiens) [24] = target: 14-3-3σ (Homo sapiens) (UniProt P31947); experiment: ITC

Sequence of p53 CTD pS378 peptide (P04637 361-393): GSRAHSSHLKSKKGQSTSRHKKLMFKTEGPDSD
Sequence of p53 CTD pS378/pT387 peptide (P04637 361-393): as above
Sequence of p53 CTD pT387 peptide (P04637 361-393): as above
Sequence of p53 CTD pS366 peptide (P04637 361-393): as above
Sequence of p53 CTD pS366/pT387 peptide (P04637 361-393): as above
Sequence of p53 CTD pS366/pS378 peptide (P04637 361-393): as above
Sequence of 14-3-3σ (P31947 whole entry): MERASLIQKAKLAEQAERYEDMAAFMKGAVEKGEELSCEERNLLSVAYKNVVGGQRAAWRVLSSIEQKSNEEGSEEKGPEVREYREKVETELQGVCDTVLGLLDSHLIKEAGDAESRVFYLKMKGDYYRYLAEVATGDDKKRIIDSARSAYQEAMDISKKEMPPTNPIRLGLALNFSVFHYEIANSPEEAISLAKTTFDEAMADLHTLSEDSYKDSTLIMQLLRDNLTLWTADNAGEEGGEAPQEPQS
Sequence of 14-3-3σ (Homo sapiens) (P31947 whole entry): as above
Sequence of p53 CTD (Homo sapiens) (P04637 363-393): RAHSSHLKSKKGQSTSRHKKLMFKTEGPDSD
Sequence of 14-3-3γ (Homo sapiens) (P61981 2-247): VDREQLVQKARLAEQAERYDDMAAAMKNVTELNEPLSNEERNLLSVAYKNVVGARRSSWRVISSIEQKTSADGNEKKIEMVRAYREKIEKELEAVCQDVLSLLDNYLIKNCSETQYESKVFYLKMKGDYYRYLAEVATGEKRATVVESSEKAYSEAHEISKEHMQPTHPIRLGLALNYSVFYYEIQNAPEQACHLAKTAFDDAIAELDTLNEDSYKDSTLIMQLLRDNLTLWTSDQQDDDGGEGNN
Sequence of 14-3-3γ (P61981 2-247): as above
Sequence of 14-3-3τ (Homo sapiens) (P27348 whole entry): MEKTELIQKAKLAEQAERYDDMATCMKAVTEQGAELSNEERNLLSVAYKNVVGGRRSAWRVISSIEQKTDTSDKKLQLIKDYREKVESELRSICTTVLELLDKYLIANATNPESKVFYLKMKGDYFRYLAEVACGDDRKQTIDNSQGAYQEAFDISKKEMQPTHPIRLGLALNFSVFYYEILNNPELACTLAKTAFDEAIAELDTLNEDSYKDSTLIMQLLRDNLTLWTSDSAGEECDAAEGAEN
Sequence of 14-3-3τ (P27348 whole entry): as above
Sequence of 14-3-3ε (P62258 whole entry): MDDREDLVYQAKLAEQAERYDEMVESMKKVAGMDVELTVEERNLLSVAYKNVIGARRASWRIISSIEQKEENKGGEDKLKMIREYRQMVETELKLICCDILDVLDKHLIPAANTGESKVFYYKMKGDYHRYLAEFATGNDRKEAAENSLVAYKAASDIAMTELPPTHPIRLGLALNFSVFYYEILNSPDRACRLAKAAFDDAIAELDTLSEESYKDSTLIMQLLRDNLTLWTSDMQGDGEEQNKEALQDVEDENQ
Sequence of 14-3-3ε (Homo sapiens) (P62258 whole entry): as above

In the case of 14-3-3γ (from UniProt P61981), the Kd (p53 CTD (Homo sapiens) [1]) is listed as 20 µM, the Kd (p53 CTD (Homo sapiens) [2]) is listed as 14 µM and the Kd (p53 CTD (Homo sapiens) [3]) is listed as 0.14 µM. For the same substance, the Kd (p53 CTD (Homo sapiens) [4]) was 0.45 µM, the Kd (p53 CTD (Homo sapiens) [5]) was 17 µM and the Kd (p53 CTD (Homo sapiens) [6]) was 0.48 µM.
For 14-3-3ε (from UniProt P62258), the Kd (p53 CTD (Homo sapiens) [7]) is listed as 11 µM, the Kd (p53 CTD (Homo sapiens) [8]) is listed as 0.18 µM and the Kd (p53 CTD (Homo sapiens) [9]) is listed as 0.51 µM. The Kd (p53 CTD (Homo sapiens) [10]) was 0.8 µM, the Kd (p53 CTD (Homo sapiens) [11]) was 18 µM and the Kd (p53 CTD (Homo sapiens) [4]) was 16 µM.
In the case of 14-3-3σ (from UniProt P31947), the Kd (p53 CTD (Homo sapiens) [12]) is listed as 3.5 µM, the Kd (p53 CTD (Homo sapiens) [13]) is listed as 22 µM and the Kd (p53 CTD (Homo sapiens) [4]) is listed as 23 µM. For the same substance, the Kd (p53 CTD (Homo sapiens) [14]) was 7.3 µM, the Kd (p53 CTD (Homo sapiens) [15]) was 24 µM and the Kd (p53 CTD (Homo sapiens) [16]) was 2.2 µM. For the same substance, the Kd (p53 CTD (Homo sapiens) [17]) was 16.3 µM.
In the case of 14-3-3τ (from UniProt P27348), the Kd (p53 CTD (Homo sapiens) [18]) is given as 28 µM, the Kd (p53 CTD (Homo sapiens) [4]) is given as 6.2 µM and the Kd (p53 CTD (Homo sapiens) [19]) is given as 27 µM. The Kd (p53 CTD (Homo sapiens) [20]) was 3.3 µM, the Kd (p53 CTD (Homo sapiens) [21]) was 24 µM and the Kd (p53 CTD (Homo sapiens) [22]) was 2.1 µM.
In the case of “p53 CTD pS366 peptide (from UniProt P04637)”, the Kd (14-3-3ε (Homo sapiens)) is given as 16 µM, the Kd (14-3-3τ (Homo sapiens)) is given as 28 µM and the Kd (14-3-3σ (Homo sapiens) [23]) is given as 24 µM. The Kd (14-3-3γ (Homo sapiens)) was 17 µM.
In the case of “p53 CTD pS366/pS378 peptide (from UniProt P04637)”, the Kd (14-3-3ε (Homo sapiens)) is listed as 0.51 µM, the Kd (14-3-3τ (Homo sapiens)) is listed as 2.1 µM and the Kd (14-3-3σ (Homo sapiens) [23]) is listed as 2.2 µM. For the same substance, the Kd (14-3-3γ (Homo sapiens)) was 0.48 µM.
In the case of “p53 CTD pS366/pT387 peptide (from UniProt P04637)”, the Kd (14-3-3ε (Homo sapiens)) is listed as 0.18 µM, the Kd (14-3-3τ (Homo sapiens)) is listed as 6.2 µM and the Kd (14-3-3σ (Homo sapiens) [23]) is listed as 3.5 µM. For the same substance, the Kd (14-3-3γ (Homo sapiens)) was 0.14 µM.
In the case of “p53 CTD pS378 peptide (from UniProt P04637)”, the Kd (14-3-3ε (Homo sapiens)) is given as 18 µM, the Kd (14-3-3τ (Homo sapiens)) is given as 27 µM and the Kd (14-3-3σ (Homo sapiens) [23]) is given as 22 µM. The Kd (14-3-3γ (Homo sapiens)) was 20 µM.
For “p53 CTD pS378/pT387 peptide (from UniProt P04637)”, the Kd (14-3-3ε (Homo sapiens)) is listed as 0.8 µM, the Kd (14-3-3τ (Homo sapiens)) is listed as 3.3 µM and the Kd (14-3-3σ (Homo sapiens) [23]) is listed as 7.3 µM. For the same substance, the Kd (14-3-3γ (Homo sapiens)) was 0.45 µM.
In the case of “p53 CTD pT387 peptide (from UniProt P04637)”, the Kd (14-3-3ε (Homo sapiens)) is listed as 11 µM, the Kd (14-3-3τ (Homo sapiens)) is listed as 24 µM and the Kd (14-3-3σ (Homo sapiens) [23]) is listed as 23 µM. The Kd (14-3-3γ (Homo sapiens)) was 14 µM.
For p53 pT387 peptide (from UniProt P04637), the Kd (14-3-3σ (Homo sapiens) [24]) is given as 16.3 µM.
